Reference: patent US20220054588A1, “USE OF SAP FOR THE TREATMENT OF EUROTIOMYCETES FUNGI INFECTIONS” (HUMANITAS MIRASOLE S.P.A., priority 2018, published 2022)

B1: SAP: Serum Amyloid P component, species not printed at the place; murine Sap per legend b89 for b91, unstated for b97 (protein, UniProt P12246 21-224, looked up)
Serum amyloid P-component: QTDLKRKVFVFPRESETDHVKLIPHLEKPLQNFTLCFRTYSDLSRSQSLFSYSVKGRDNELLIYKEKVGEYSLYIGQSKVTVRGMEEYLSPVHLCTTWESSSGIVEFWVNGKPWVKKSLQREYTVKAPPSIVLGQEQDNYGGGFQRSQSFVGEFSDLYMWDYVLTPQDILFVYRDSPVNPNILNWQALNYEINGYVVIRPRVWD
B2: murine PTX3: Recombinant murine PTX3 purified from Chinese hamster ovary cells (protein)
chain: ETSDDYELMYVNLDNEIDNGLHPTEDPTPCDCRQEHSEWDKLFIMLENSQMREGMLLQATDDVLRGELQRLRAELGRLAGGMARPCAAGGPADARLVRALEPLLQESRDASLRLARLEDAEARRPEATVPGLGAVLEELRRTRADLSAVQSWVARHWLPAGCETAIFFPMRSKKIFGSVHPVRPMKLESFSTCIWVKATDVLNKTILFSYGTKWNPYEIQLYLSSQSLVLVVGGKENKLAADTVVSLGRWSHLCGTWSSEQGSMSLWANGELVATTVEMAKSHSVPEGGLLQIGQEKNGCCVGGGFDESLAFSGRITGFNIWDRVLSEEEIRASGGVESCHIRGNVVGWGVTEIQAHGGAQYVS

Experiments:
U937 cells = experiment: Phagocytosis of A. fumigatus conidia by U937 cells overexpressing DC-SIGN; format: cell-based, human; conditions: U937 stably transfected for DC-SIGN and control cells
From the text: FIG. 9 depicts how SAP effect on phagocytosis is independent from its interaction with DC-SIGN. a) detection of DC-SIGN expression in transfected U937 cells by FACS. Untransfected cells and an irrelevant IgG were used as control. Mean±SD of a quadruplicate experiment is shown. b) FACS analysis of fluorescein-labelled AF conidia (1×10^7) phagocytosis by U937 cells (1×10^5) overexpressing DC-SIGN.
U937 cell lines [control (ATCC® CRL-1593.2™) and transduced with human DC-SIGN (ATCC® CRL-3253™)] were cultured in RPMI-1640 medium containing 5% FCS, 2 mM L-glutamine, 0.1 mM non-essential amino acids (all from Lonza-BioWhittaker™) and 0.05 mM 2-mercaptoethanol (BIO-RAD). DC-SIGN expression was ascertained by FACS using a rabbit polyclonal Ab (#ab5715, 5 μg/ml; AbCam, UK) and an Alexa Fluor® 488-conjugated goat anti rabbit (2 μg/ml; ThermoFisher-Molecular Probes). Phagocytosis of FITC-labelled A. fumigatus conidia (1×10^7) by U937 cells (1×10^5) was performed as above described above.

[1] = system: neutrophils in whole blood; experiment: Whole blood phagocytosis of A. fumigatus conidia by mouse neutrophils (FACS), with CD11b expression; format: cell-based, mice; conditions: SAP pre-opsonised conidia; for phagocytosis by neutrophils: 1 and 20 min
Experimental: FIGS. 7a and 7b depict the effect of SAP on A. fumigatus phagocytosis by neutrophils. a), b), FACS analysis (out of 3 performed) of phagocytosis (a) and CD11b internalization (b) in neutrophils after challenge with fluorescein-labelled AF conidia (5×10^6/100 μl of blood) opsonized or not with Sap is shown. a) neutrophil phagocytosis in whole blood of wt and Apcs^−/− mice. b) CD11b expression in neutrophils of a. a) and b) Mean±SEM;*, P<0.05;**, P<0.01;***, P<0.005;****, P<0.0005 (unpaired t-test).
FIG. 7c depicts the effect of human SAP on phagocytic activity. FACS analysis of neutrophil phagocytosis in blood of wt and Apcs^−/− mice after exposure with fluorescein-labelled AF conidia (5×10^6/100 μl of blood) opsonized or not with SAP. Figure refers to 2 experiments performed.***, P<0.005;***, P<0.0005 (unpaired t-test).
Cells and in vitro phagocytic activity. Phagocytosis assay in whole blood of A. fumigatus conidia by mouse and human neutrophils was performed as described (Moalli et al., 2010). Briefly, conidia (1×10^9) were labelled (1 h, r.t.) with FITC (Sigma-Aldrich; 5 mg/ml in DMSO), and eventually opsonized (1 h, r.t) with murine SAP (100 μg/ml; […]) and PTX3 (50 μg/ml; 1.1 μM). An amount of 1×10^7 FITC-conidia were added to 200 μl of mouse whole blood (collected with heparin) and incubated for 1, 5, 10, 20 or 30 min at 37° C. in an orbital shaker. Samples were immediately placed on ice and ACK lysis solution was added to lyse erythrocytes. Murine neutrophils were analysed by BD FACS Canto™ II Flow Cytometer (BD Biosciences) as previously described, and frequency and/or mean fluorescence intensity (MFI) of FITC neutrophils and CD11b expression were reported.

A. fumigatus conidia = experiment: FACS binding of biotin-conjugated murine SAP to A. fumigatus conidia, with competition; parameters: species or system Aspergillus fumigatus; conditions: Sap 0.1-10 μg/ml; Ptx3 50 μg/ml; anti-Sap monoclonal antibody detection
Experimental: FIG. 1 depicts the interaction of SAP with A. fumigatus conidia in mice. a) induction of SAP circulating levels after i.t. injection of 5×10^7 A. fumigatus (AF) conidia; LPS, 0.8 mg/Kg. Mean±SD. c) FACS analysis of binding of biotin-conjugated (b-) murine SAP (Sap; 10 μg/ml) to viable dormant or germinating conidia of AF (1×10^8). Human SAP (50 μg/ml) and CRP (50 μg/ml) were also used. Mean±SD of one quadruplicate experiment of two performed.
FIG. 10 depicts the susceptibility to A. fumigatus associated with single or double deficiency for SAP and PTX3. a and b, survival of wt and Apcs^−/−, Ptx3^−/− and Apcs^−/−, Ptx3^−/− mice after i.t. injection of 1×10^8 (a) or 5×10^7 (b) conidia. a, wt, n=9 (a, b); n=9 (a, b); Ptx3^−/−, n=7 (a) or n=10 (b); Ptx3^−/−, n=5 (a) or n=12 (b). a, b, P<0.05, wt vs. Apcs^−/− P<0.01 wt vs. Apcs^−/−, Ptx3^−/−; P=0.06, Apcs^−/−, Ptx3^−/− vs. Ptx3^−/− (Mantel-Cox test). a) Curves of wt and Apcs^−/− refer to the same ones shown in FIG. 2a-c FACS analysis of Sap (range from 0.1 to 10 μg/ml) binding to viable AF conidia (1×10^8) in presence of Ptx3 (50 μg/ml). An anti-Sap monoclonal antibody (non-reactive to Ptx3) was used. Mean±SD of a triplicate. **, P<0.01;***, P<0.005;****, P<0.0001 (unpaired t-test).
Binding of SAP. Conidia of A. fumigatus and A. flavus (1×10^8 CFU) were cultured 4 and 16 h under static condition in Sabouraud medium to respectively allow conidia swelling and germination. Blastospores and yeast of Candida albicans were prepared as previously described (Santus et al., 2017). Yeast (8×10^6/ml) were incubated at 37° C. for hyphal induction. Formation of hyphae was evaluated under a microscope at different time points until its amount was assessed at 95%. […] After extensive washing, samples were incubated (30 min, r. t.) with Alexa Fluor® 647-conjugated streptavidin and binding was evaluated by FACS as frequency and MFI and visualized by confocal microscopy as described. […]

Row | Molecule | SAP-mediated enhancement of phagocytosis, DC-SIGN transfected versus control cells (U937 cells) | CD11b internalization in neutrophils ([1]; Apcs−/− neutrophils) | phagocytosis by neutrophils ([1]; Apcs−/− whole blood) | CD11b internalization in neutrophils ([1]; wt neutrophils) | phagocytosis by neutrophils ([1]; wt whole blood) | competition of murine SAP binding to conidia (A. fumigatus conidia)
1 | B1 | similar | restored CD11b internalization | rescued the defect | prompted it | potentiated phagocytosis | –
2 | B2 | – | – | – | – | – | competed
